# Laboratory results: article PMC9744130
# Molecular target: BtAAV-10HB capsid viral proteins (VP1, VP2, VP3) assembled as the capsid (bat adeno-associated virus BtAAV-10HB)
# Assay: cryo-EM structure
substance,measurement,value
"BtAAV-10HB capsid viral proteins (VP1, VP2, VP3) assembled as the capsid (complex)",stoichiometry N,60
